From the nanobody polyreactivity screen of Harvey et al. (2022)

test: yeast display, Sf9 membrane polyspecificity reagent, FACS + sequencing; frameworks hold sequencing errors
Procedure, shortened: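 Using colony PCR, genes from sorted yeast display clones were amplified, then sequenced on MiSeq at 2 × 250 and filtered by CDR length. The clones had been stained with 10% biotinylated, detergent-solubilized Sf9 membrane reagent for 1 hour at 4 °C and sorted by FACS into low and high (top ~1%) gates on anti-HA and streptavidin fluorescence. Polyreactivity labels come from the gate of origin.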

Sequence	polyreactivity (PSR sort gate)
QVQLVETGGGLVQAGGSLRLSCAASGSTFVYYAMGWYRQAPGKERELVAAISSGGNTKYADSVKGRFTISRDNAKNTVYLQMNSLKPEDTEVYYCARESQSYYDHDYWGQVTQVTVSS	low polyreactivity
QVQLVESGGGLVQAGGSLRLSCAASAFILYRNAMGWYRQAPGKERELVAAITWNGDRTHYADSVMGRFTISRDNAKNTVYLQMNSLKPEDNAVYYCAAYYVSVRGGRYRNKWYDHWGQGTQVTVSS	high polyreactivity
QVQLVESGGGLVQAGGSLRLSCAASGSIFQANAMGWYRQAPGKERELLAAISSRGGSTYYADSVKGRFTISRDNAKNTVYLQMNSLKPGDTAVYYCAADSIQYTARPYDYWGQGTQVTVSS	low polyreactivity
QVQLVESGGGLVQAGGSLRLSCASSGSIFAWNAMGWYRQTPGKERELVAAINSGGGTYYADSVKGRFTISRDNAKNTVYSQMNSLIPEDTAVYYCAAGRLSHRYRYNYWGQGTQVTVSS	high polyreactivity
QVQLVESGGGLVQAGGSLRLSCAASGSTFGSYAMGWYRQAPGKERELVADISSRGASTYYADSVKGRFTISRDNAKNTVYLQMNSLKPEDTAVYYCARDVYIWYGYGYFPEYEYWGQGTQVTVSS	low polyreactivity
QVQLVESGGGLVQAGGSLRLSCAASGSTFVQYAMGWYRQAPGKERELVAAITSGGRTNYADSVKGRFTISRDNAKYTVYLQMNSLKPEDTAVYYCAARYGSNSPRGYEYYYWGQGTQVSVSS	low polyreactivity
QVQLVESGGGLVQAGGSLRLSCAASGSIFAGNAMGWYRQAPGKERELVAAISRRGGSTYYADSVKGRFTISRDNAKNTVYLQMNSLKPEDTAVYYCAAANWQRYYYWGQGTQVTVSS	high polyreactivity
QVQLVDSGGGLVQAGGSLRLSCAASGSIFGQYTMGWYRQAPGKERELVAAINSSGDSTFYADSVKGRFTISRDNAKNTVYLQMNSLKPEDTAVYFCAADPYRYYFRAYGWHREGYYWGQGTQVTVSS	low polyreactivity
QVQLQESGGGRMQAGGSQRLSCAASGSISYYSDMGWYRQAPGKEREFVAGIGYGTTTNYADSVKGRFTTSRDNAKNTVYLQMISMKPEDTAVYYCAAYQGNGYEFYYWGQGTQVTVRS	low polyreactivity
QVQLVESGGGLVQAGGSLRLSCAASGRIFTVNTMGWYREAPGKERELVASIRGGGSTNYADSVKGRFTISRDNAKNTVYLQMNSLKPEDTAVYYCAAGTSKPTPIYGYWGQGTQVPVSS	low polyreactivity
QVQLVESGGGLVQAGGSLRLSCAASGSTLRGYAMGWYRQAPGKERELVARITSGGRTSYADSVKGRFTISRDNAKNTVYLQMNSLKPEDTAVYYCATRIYGWSFGSWYKYDYWGQGTQVTVSS	low polyreactivity
QVQIVESGGGVVQAGGILRLSCAASGYTFTVYGMGWYRQAPGKERELVARITWSGGTTRYADSVKGRFTISRDNAKNNVYLQMNSLKPEDTAVYYCAASYWRPKRYRYDYWGQGTQVTVSS	high polyreactivity
QVQLVESGGGLVQAGGSLRLSCAASGFTLGCYAMGWYRQAPGKERELVAAITRDGSSTYYADSVKGRFTISRDNAKNTVYLQMNRLKPEDTAVYYCAAERKKKYDYWGQGTQVTVSS	high polyreactivity
QVQLVESGGGLVQAGGSLRLSCAASGFTFGGNPMGWYRQAPGKERELVAAIRRGGSTYYADSVKGRFTISRDNAKNTVYLQMNSLKPEDTAVYYCAAAIPGKYSNDDWGQGTQVTVSS	high polyreactivity
QVQLVESGGGLVQAGGSLRLSCAASVRIFATNAMGWSRQAPGKERELVARISRRGGSTNYADSVKGRFTISRDNAKNTVYLQMNSLKPEDTAVYYCNVSFYWYRWYALLDYWGQVTQVTVSS	high polyreactivity
QVQLVESGGGLVQAGGSLRLSCSAYGLILRTYGMGWYRQAPGKERELVAVISSGGSTYYADSVKGRFTISRDNEKNTVYLQMNSLKPEDTAVYYCAVRSSWYEGDYWGQGTQVTVSS	low polyreactivity

Sequence	polyreactivity (PSR sort gate)
QVQLVESGGGLVKAGGILRLICVASGRTFLRYGMGWYRQAPGKERELVAAISIVGNTYYADSVKGRFTISRDNAKNTVYLQMNSLKPEDTAVYYCAAGRRFGRDYWGQGTQVTVSS	high polyreactivity
QVQLVESGGGLVQAGGSLRLSCAASGRTFGYYAMGWYRQAPGKERELVAAISGSGGSTYYADSVKGRFTISRDNAKNTVYLQMKSLKPEDTAVYYCNVYPPYAMDYWGQGTQVTVSS	high polyreactivity
QVQLVESGGGLVQAGGSLRLSCAASGNIFRSYAMGWYRQAPGKERELVAAISSRGGSTYYADSVKGRFTISRDNAKNTVYLQMNSLKPEDTAVYYCNAPSTQQGPKYDYWGQGTQVTVSS	low polyreactivity
QVQLVESGGGLVQAGGSLRLSCAASGLILTWNAMGWYRQAPGKERELVAAISRSDGITYYADSVKGRFTISRDTAKNTVYIQMNSLKPEDTAVYYCAKDGVPKGRGGAYYEYDYWGQGTQVTVSS	low polyreactivity
QVQLQESGGGLVQAGGSMRLSCAASGSISELRPMGWYRQAPGKERELVAGISTGGSTNYADSVKGRFTISRDNAKNTVYLQMNSLKPEDTAVYYCAAALSNVRNVRSPYDYWGQGTQVTVSS	high polyreactivity
QVQLVESAGGLVQAGGSLSLSCAASGRTFVIYAMGWYRKAPGKERELVAGIDSGTSTYADSVKGRFTISRDNAKNTVYLQMNSLKPEDTAVYYCAADFAPDGAGWYIPGDYDSWGQGTQVTVSS	low polyreactivity
QVQLVESGGGLVQAGGSLRLSCAASGSIFIINAMGWYRQAPGKERELVAAITTSGGRTYYADSVKGRFTISRDNAKNTVYLQMNSLKPEDTAVYSCASSHYGSTGNYWGQGTQVTVSS	low polyreactivity
QVQLVESGGGLVQAGGSLRLSCASSGSIFGGYAMGWYRQAPGKERELVAAITSSGGLTYYADSVKGRFTISRDNAKNTVYLQMNCLKPEDTAVYYCAAVTVAGYDYWGQGTQVTVSS	high polyreactivity
QVQLVESGAALVQAAGSLRLSCAASGSIFTPYAMGWYRQAPGKERELVAGIRSSGGRTYYADSVKGRFTISRDNAKNTVYLQMNSLKPEDTAVSYCAADQDWYGFVIGFDYWGQGTQVTVSS	low polyreactivity
QLQLVESGGGLVQAGGSLRITCAASGSTFLTYSMGWYRQAPGKESELVAGISYSTGSTYYADSVKGRFTISRDNAKYTVYLQMNSLKPEDTAVYYCAADEWDCLWYYYYFNYEYWGQGTQVTVSS	low polyreactivity
QVQLVESGGGLVQAGGSLRLSCAASGNIFDSYGMGWYRQAPGKERELVATINTSSGSTYYADSVKGRFTISRDNAKNTVYIQMNSLKPEDTAVYYCAAEWYPYTWGYGYWGQGTQVTVSS	low polyreactivity
QVQLVESGGGIVQAGGSLRLSCAASGRTFQLYAMGWYRQAPGKERELVAAITRGGSTKYADSVKGRFTISRDNAKNTVYLQMNSLKPEDTAVDYCAAKFSSYWSRFGYWGQGTQVTVSS	high polyreactivity
QVQLVESGGGLVQAGGSLRLSCAASGFIFGLYDMGWDRQAPGKERELVATISDSGGDTYYSDSVKGRFTISRDNAKNTVYLQMNSMKPEDTAVYYCAAKYVYGRGIRAYDYWVQGTQVTVSS	high polyreactivity
QVQLVESGGGLVQAGGSLRLSCAASGITFPYYAMGWYRQAPGKERELVAAISSSGGSTYYADSVKGRFTISRDNAKNTVYLQMNSLKPEDTAVYYCAAQRYIHYDYWGQGTQVTVSS	high polyreactivity
QVQLVESGGGLVQAGGSLRLSCAASGSTFVPKDMGWNRQAPGKERELVAAISYSGGSTYYADSVKGRFTISRDNAKNTVYLQLNSLKPEDTAVDYCNAEGWYYLTEYGYWGQGTQVTVSS	low polyreactivity
QVQHVESGGGLVQAGGSLRLSCAASGRIFVAYTMGWYRQAPGKERELVAGISRSGGSTYYADSVKGRFTISRDNAKNTVYLQMNNLKPEDTAVYYCAVGNWRLFPYGYWGQGTQVTVSS	high polyreactivity
